These results are taken from PMC11021452, “Exposing the molecular heterogeneity of glycosylated biotherapeutics” (Nature Communications, 2024).

B1: IL22-Fc fusion biotherapeutic (UTTR1147A) [modified: N-linked glycans with sialic acid; 8 N-linked glycosylation sites in the dimer (N21, N35, N64, N143 on each chain); N-linked glycans with sialic acid; 8 N-linked … (parent)
chain 1: APISSHCRLDKSNFQQPYITNRTFMLAKEASLADNNTDVRLIGEKLFHGVSMSERCYLMKQVLNFTLEEVLFPQSDRFQPYMQEVVPFLARLSNRLSTCHIEGDDLHIQRNVQKLKDTVKKLGESGEIKAIGELDLLFMSLRNACI
chain 2: HAPEDPSDLLQHVKFQSSNFENILTWDSGPEGTPDTVYSIEYKTYGERDWVAKKGCQRITRKSCNLTVETGNLTELYYARVTAVSAGGRSATKMTDRFSSLQHTTLKPPDVTCISKVRSIQMIVHPTPTPIRAGDGHRLTLEDIFHDLFYHLELQVNRTYQMHLGGKQREYEFFGLTPDTEFLGTIMICVPTWAKESAPYMCRVKTLPDRTWT

The variants in this assay derive from B1. In words: relative potency assay (method not named for this panel; measured in duplicate). The conditions noted are these: with IL-22 RA1 extracellular domain (ECD).
Regarding chain 1 N35Q, the ratio to parent stood at 1.54.
Regarding chain 1 N64Q, the ratio to parent is 0.64.
In the case of chain 1 N143Q it was 0.83.
